Experimental data: patent US20260232824A1 (CHAMPIONS ONCOLOGY, published 2026)
Residue numbers refer to the chain shown, from its start.

B1: Ab-007 (antibody, human IgG1, kappa, V domains shown)
VH: EVQLVESGGGVVRPGGSLRLSCAASGFTFDDYAMSWVRQAPGKGLEWVSDINWNGGTTSYADSVKGRFTISRDNAKNSLFLQMNSLRAEDTALYYCARKGRDTVVVKGYYYFSYYMDVWGKGSTVTVSS
VL: not shown
notes: also called ChampmAb-007; Champ mAb-007
B2: Ab-008 (antibody, human IgG1, kappa, V domains shown)
VH: EVQLVESGGGLVQPGRSLRLSCTTSGFTFADYAMHWVRQTPGQGLEWVSGISWNGGTMGYADSVKGRFTISRDIAKNSLYLQMNSLRAEDTALYYCAKDIAYSRGYFQHWGQGTLVTVSS
VL: DIQMTQSPSSLSASVGDRVTITCRASQGIRNDLGWYQQKPGKAPKLLIYAASTLQSGVPSRFSGSGSGTDFTLTISSLQPEDVATYYCQKYNSAPFTFGPGTKVDIKR
B3: Ab-016 (antibody, human IgG1, kappa, V domains shown)
VH: B2 VH with Q43K, M58I
VL: not shown
B4: Ab-003 (antibody, human IgG1, kappa, V domains shown)
VH: B2 VH
VL: not shown
B5: Ab-004 (antibody, human IgG1, kappa, V domains shown)
VH: B2 VH with R16G, Q43K, G56V, M58I, G59D
VL: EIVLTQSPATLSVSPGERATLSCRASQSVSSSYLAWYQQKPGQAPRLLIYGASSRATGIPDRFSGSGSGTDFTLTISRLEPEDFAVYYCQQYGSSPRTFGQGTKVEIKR
notes: also called CHAMPmAB-004
B6: Ab-005 (antibody, human IgG1, kappa, V domains shown)
VH: B2 VH with R16G, Q43K, M58I
VL: not shown
B7: Ab-010 (antibody, human IgG1, kappa, V domains shown)
VH: B2 VH with R16G, T24S, Q43K, M58F, G59D, A88V
VL: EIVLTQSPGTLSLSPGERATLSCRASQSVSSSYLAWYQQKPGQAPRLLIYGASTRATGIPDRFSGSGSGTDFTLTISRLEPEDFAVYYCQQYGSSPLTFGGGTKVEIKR
B8: Ab-014 (antibody, human IgG1, kappa, V domains shown)
VH: B2 VH with Q43K, G56V, M58I, G59D
VL: not shown
notes: also called CHAMPmAB-014
B9: Ab-017 (antibody, human IgG1, kappa, V domains shown)
VH: B2 VH
VL: not shown
B10: Ab-012 (antibody, human IgG1, kappa, V domains shown)
VH: B2 VH
VL: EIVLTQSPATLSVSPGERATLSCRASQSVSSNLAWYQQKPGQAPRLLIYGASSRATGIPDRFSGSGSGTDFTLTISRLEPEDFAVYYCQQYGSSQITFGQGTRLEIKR
B11: Ab-002 (antibody, human IgG1, kappa, V domains shown)
VH: EVQLVESGGGLVQPGGSLRLSCAASGFTSVDYAMHWVRQAPGKGLEWVSYISWNNNNIGYADSVKGRFTISRDNAKNSLYLHMSSLRAEDTALYYCAKDIAYNTGYFDYWGQGTLVTVSS
VL: not shown
B12: Ab-006 (antibody, human IgG1, kappa, V domains shown)
VH: EVQLVESGGGLVKPGGSLRLSCTASGFTFDDYDMTWVRQAPGKGLEWVSGINWNGGNTDYADSVKGRFTISRDNTKNSLYLQMNSLRAEDTALYYCARKGRDIVVVKGFYYHYYYMDVWGKGITVTVSS
VL: not shown
notes: also called ChampmAb-006; Champ mAb-006
B13: Ab-009 (antibody, human IgG1, kappa, V domains shown)
VH: B2 VH with Q43K, G56V, M58I, G59D
VL: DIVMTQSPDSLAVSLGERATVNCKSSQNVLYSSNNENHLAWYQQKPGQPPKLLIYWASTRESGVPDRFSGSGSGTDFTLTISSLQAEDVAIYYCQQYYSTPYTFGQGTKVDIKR

How the values were obtained:
[1] = target: T1, human CD180/human MD-1 on HEK293 cells (human, UniProt Q99467 24-661; O95711 21-162); assay: cell-based ELISA / flow cytometry, HEK293 expressing CD180/MD-1, 100 nM and 30 nM
T1 construct: whole, on cells; Complex co-expressed on HEK293 cells; also called HEK293 expressing CD180/MD-1; HEK293 CD180/MD-1 cells
T1 sequence (looked up) 1: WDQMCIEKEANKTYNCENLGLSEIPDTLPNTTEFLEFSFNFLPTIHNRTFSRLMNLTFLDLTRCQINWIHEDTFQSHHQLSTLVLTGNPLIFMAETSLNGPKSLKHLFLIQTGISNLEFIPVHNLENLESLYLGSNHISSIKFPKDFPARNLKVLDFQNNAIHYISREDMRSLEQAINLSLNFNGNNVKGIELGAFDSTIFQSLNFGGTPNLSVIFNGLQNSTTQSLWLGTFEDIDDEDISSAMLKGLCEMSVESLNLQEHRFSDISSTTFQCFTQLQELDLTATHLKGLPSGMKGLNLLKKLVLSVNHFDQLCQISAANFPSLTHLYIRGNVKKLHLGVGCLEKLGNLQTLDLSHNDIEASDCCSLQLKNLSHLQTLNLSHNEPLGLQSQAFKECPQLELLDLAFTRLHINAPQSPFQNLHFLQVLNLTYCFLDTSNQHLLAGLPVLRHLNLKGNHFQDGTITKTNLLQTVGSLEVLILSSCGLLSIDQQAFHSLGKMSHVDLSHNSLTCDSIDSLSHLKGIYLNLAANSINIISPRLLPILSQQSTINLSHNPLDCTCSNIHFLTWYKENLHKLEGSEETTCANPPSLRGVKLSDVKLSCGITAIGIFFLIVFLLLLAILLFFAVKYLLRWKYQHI
T1 sequence (looked up) 2: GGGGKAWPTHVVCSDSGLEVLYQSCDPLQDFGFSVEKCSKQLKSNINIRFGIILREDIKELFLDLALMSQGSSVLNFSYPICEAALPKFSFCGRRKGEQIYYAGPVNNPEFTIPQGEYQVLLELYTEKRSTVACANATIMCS
Procedure: (§1) FIGS. 1A-IC show the cell binding properties of the anti-CD180 antibodies. All CHAMP mAbs were subjected to binding assays via cell-based ELISA. FIG. 1A: Antibodies were screened at […] and 30 nM in a cell-based ELISA using HEK293 expressing CD180/MD-1. […] P84, mouse IgG, and 2nd only mouse were negative controls. […] FIG. 1B: Antibodies were screened at […] in cell-based ELISA using HEK293 expressing MD-1 only. […] FIG. 1C: Antibodies were screened at […] in cell-based ELISA using HEK293 parental cell line.
(§2) All mAbs were subjected to cell binding screen detected on a flow cytometer. Engineered cells expressing CD180/MD-1, MD-1, or parental HEK cells were used to test for binding of the antibodies. Antibodies at a concentration of 100 nM or 30 nM were incubated with cells at 4° C. for 45 min. R-Phycoerythrin AffiniPure Goat Anti-Human IgG (Jackson Immunoresearch 109-115-098) was used as the secondary antibody. The binding of antibodies on cells were detected on Intellicyt iQue3 VBR.

[2] = target: T2, human MD-1 on HEK293 cells (human, UniProt O95711 21-162); assay: cell binding screen by flow cytometry (called cell-based ELISA), HEK293 expressing MD-1 only
T2 construct: whole, on cells; also called HEK293 expressing MD-1 only; MD-1 cells
T2 sequence (looked up): T1 sequence (looked up) 2
Procedure: as §1, §2

[3] = target: T3, human CD180 extracellular domain (ECD) HIS-tagged protein (Sino Biological, 11370-H08H) (human, UniProt Q99467 24-626); assay: SPR, antibody captured in a bivalent format, soluble human CD180 from Sino Biologics passed over (FIG. 3A)
T3 construct: extracellular domain; Bought protein; also called soluble human CD180 from Sino Biologics; human CD180(ECD)-HIS; not shown: His tag
T3 sequence (looked up): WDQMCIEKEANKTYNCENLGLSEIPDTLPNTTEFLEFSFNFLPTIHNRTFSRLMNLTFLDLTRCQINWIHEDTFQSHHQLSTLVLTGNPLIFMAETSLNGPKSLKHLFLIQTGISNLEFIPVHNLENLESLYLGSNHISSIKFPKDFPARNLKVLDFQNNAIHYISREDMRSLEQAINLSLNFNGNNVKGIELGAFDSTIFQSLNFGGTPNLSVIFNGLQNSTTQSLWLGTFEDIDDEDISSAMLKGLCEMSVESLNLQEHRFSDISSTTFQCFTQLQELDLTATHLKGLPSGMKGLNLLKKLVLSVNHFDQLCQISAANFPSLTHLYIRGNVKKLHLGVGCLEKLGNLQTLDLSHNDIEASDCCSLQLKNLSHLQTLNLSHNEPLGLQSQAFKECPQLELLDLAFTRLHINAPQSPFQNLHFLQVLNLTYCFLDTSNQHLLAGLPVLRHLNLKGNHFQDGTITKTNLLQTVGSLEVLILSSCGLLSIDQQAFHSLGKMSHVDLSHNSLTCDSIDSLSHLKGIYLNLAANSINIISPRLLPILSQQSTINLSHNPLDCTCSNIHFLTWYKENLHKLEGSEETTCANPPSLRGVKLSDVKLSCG
Procedure: (§3) FIGS. 3A-3C show intrinsic binding affinity of the antibodies as determined by Surface Plasmon Resonance (SPR) assay. Antibody was captured in a bivalent format and soluble human CD180 from Sino Biologics (FIG. 3A), Creative Biomart (FIG. 3B), or soluble rhesus CD180 (FIG. 3C) was passed over the captured antibody. […] Kon, koff and KD are indicated for each condition.
(§4) Surface Plasmon Resonance (SPR) was used to identify intrinsic binding affinity. Kinetic experiments were performed on Carterra LSA with a running buffer of PBS pH 7.40, 1% BSA, 0.05% Tween20. Antibodies were captured on an anti-human Fc capture chip prepared with a HC30M chip. […] For each concentration, there was 5 min association followed by 15 min dissociation. Results were processed and analyzed in Carterra LSA Kinetics Software. The kinetic data was referenced with the interstitial reference spots and double-referenced to a buffer cycle, and then fit globally to a 1:1 binding model to determine their apparent association and dissociation kinetic rate constants (kₒₙ and koff values). The ratio koff/kₒₙ was used to derive the KD value of each antigen/mAb interaction, i.e., KD=koff/kₒₙ.

[4] = target: T4, human CD180 extracellular domain (ECD) HIS-tagged protein (Creative Biomart, CD180-3900H) (human, UniProt Q99467 24-626); assay: SPR, antibody captured in a bivalent format, soluble human CD180 from Creative Biomart passed over (FIG. 3B)
T4 construct: extracellular domain; Bought protein; also called soluble human CD180 from Creative Biomart; not shown: His tag
T4 sequence (looked up): T3 sequence (looked up)
Procedure: as §3, §4

[5] = target: T1, human CD180/human MD-1 on HEK293 cells; assay: cell binding screen by flow cytometry, cells expressing CD180/MD-1, 100 nM or 30 nM
Procedure: as §1, §2

[6] = target: T1, human CD180/human MD-1 on HEK293 cells; assay: cell binding on HEK293 CD180/MD-1 cells (FIG. 14G)
Procedure: Cells were then incubated with the secondary antibody R-Phycoerythrin AffiniPure Goat Anti-Human IgG (Jackson Immunoresearch 109-115-098). The data was acquired on Intellicyt iQue3 VBR. Median fluorescence intensities (MFI) were plotted against the concentrations of the anti-CD180 antibodies.

Binder	binding result [1]	binding result [2]	binding result [3]	binding result [4]	binding result [5]	EC50 [6]
B1	binds	no binding (tested: 100 nM)	binds	binds	–	–
B2	binds	no binding (tested: 100 nM)	–	–	–	–
B3	binds	no binding (tested: 100 nM)	–	–	–	–
B4	–	no binding (tested: 100 nM)	–	–	binds	–
B5	–	no binding (tested: 100 nM)	–	–	binds	–
B6	–	no binding (tested: 100 nM)	–	–	binds	–
B7	binds	no binding (tested: 100 nM)	–	–	–	–
B8	–	no binding (tested: 100 nM)	–	–	–	4 nM
B9	binds	no binding (tested: 100 nM)	–	–	–	–
B10	binds	no binding (tested: 100 nM)	–	–	–	–
B11	–	no binding (tested: 100 nM)	–	–	binds	–
B12	–	no binding (tested: 100 nM)	binds	binds	binds	–
B13	–	no binding (tested: 100 nM)	–	–	–	–
